Results: the DeepSol protein solubility set

Assay: soluble on expression in E. coli; label from the status in PepcDB or PDB records

Sequence	soluble on expression in E. coli
MSLTGRAVIGVIGNAHLVDNRFAVQHVGERNLRAVAEVAGALPLMFGGSSEFAQIEDLLEVVDGILLTGGRANVHPTYFKTAPNPRHEPYDQPRDELALALVRTCVERGVPLFGICRGFQEMNVAYGGSLHPEIRELPGRMNHRMPRLENGEIHPDPTVVFADRHDVQLTSDGVFARLLGRDLIRVNSLHGQGILEPGPRIVIEGVAEDGTIEAIRIADAPGFALGVQWHAEYDPQVNPINRALFVAFGEAVSAYRTARKRPAALRRSEGHHHHHH	soluble
MSLTGTDFHVGIVGLGSMGMGAARSCLRAGLSTWGADLNPQACANLLAEGACGAAASAREFAGVVDALVILVVNAAQVRQVLFGEDGVAHLMKPGSAVMVSSTISSADAQEIAAALTALNLNMLDAPVSGGAVKAAQGEMTVMASGSEAAFTRLKPVLDAVASNVYRISDTPGAGSTVKIIHQLLAGVHIAAAAEAMALAARAGIPLDVMYDVVTHAAGNSWMFENRMQHVVDGDYTPRSAVDIFVKDLGLVADTAKALRFPLPLASTALNMFTSASNAGYGKEDDSAVIKIFSGITLPGVTPEEGHHHHHH	soluble
MSLTIGIWILGDQLWSGQTALKSHQGDRSQVPVLLIESAEFARQRPYHRQKLVLVWSAMRHFAEDLRAEGWSVTYEIAADFLTPLHHWLKTQGVSHLQVMAPGDRPFEAWLKSLTLPCELTLLPNNHFLWSREDFSAWAGDRKRLLLEDFYRAGRKRWQILMVDDQPVGGRWNFDQDNRKPAKKNLSPPKPLSFPPDDITQQVIERIEQLNLPGYGQLSGFQWGEGHHHHHH	soluble
MSLTIIKQVELHEFDFKAKNLGNLTGAESVGAFGYLKGSFSKIKKFAVVIITDDGVRGEYVTHWCASDATYAQSSILAPKLLGRNAEEREGIYDDFKRELRQFDHMGHGPIDIALWDWAGKKLDCSVNFLLGGFKKKLPAYASTYHGDRNGGLDSKEAFSDFAEYCYDLGYKAFKIHGWNDGNAKEEAENVLHVAKKVGHKMTLMLDPACELRTFADALYVGKACDEADYFWLEDPYRDSGVSAFAHKKLRNMIKTPILQTEHIRGLEPKADFLIAGGTDFLRMDPEYDMGITGGMKIAHLAESFGVDVEIHACGPAHRHMMSAIRNTNFYEVALLGPDCPNAIPPVYLCGYSDMIDCIDKNGFVEVPNGVGLGVKYDWEFISKNTTNKKIFSLEGHHHHHH	soluble
MSLTIITMIRFYGFSVMLENEQLKIEYGLFNKKKVTVPTKRLQAVVERQSYIRRLFGYTAIHFIITSDFENKKIEDDDNDSGSVPILPFIKRDKAYQIIQNLVPDLSYQQVNEGMPLSGFHEGHHHHHH	not soluble
MSLTIKNSLGQSHDYIKMFVKEGDTVVDATCGNGNDTAFLASLVGENGRVFGFDIQDKAIANTTKKLTDLNLIDRVTLIKDGHQNMDKYIDCPVKAVMFNLGYLPSGDHSISTRPETTIQALSKAMELLVTGGIITVVIYYGGDTGFEEKEKVLEFLKGVDQKKFIVQRTDFINQANCPPILVCIEKISEGHHHHHH	soluble
MSLTIMPDIARMKRELAEIIAIRSENPPGGEADVAVYVERLLKDEGFSVSLTEYKPGRFNVEARIENGPGPVFAFNTHMDTVPAGDGWTTDAFILREDDGKLFGRGACDCKGPLIAMIEAMRMLAADRTAWSGTLLGVFVGDEEIASEGAKYYAAARPKIDFAVVGEPTSNTTYSAHKGSLRPVVRVHGVTAHSGTPHLGDNAIYRAGQLLTLVEAFHNNVVRKRTHPLVGEASLTVTRISGGHADNVLPGSCDLLLDRRMVPGESEDAVKQEFATLLKDAYDRFGVKAEIVDYKATTGSATETAADQSIVAASLEACRASGTSDPGPFGFQGGCDLVHFRSLGAQGTVIGPGSLSVAHKADEFVPLDEFVTCSVIYRDVARKMLRPNEGHHHHHH	soluble
MSLTIQMKNTGKRIDLIANRKPQSQRVLYELRDRLKRNQFILNDTNPDIVISIGGDGMLLSAFHKYENQLDKVRFIGLHTGHLGFYTDYRDFELDKLVTNLQLDTGARVSYPVLNVKVFLENGEVKIFRALNEASIRRSDRTMVADIVINGVPFERFRGDGLTVSTPTGSTAYNKSLGGAVLHPTIEALQLTEIASLNNRVYRTLGSSIIVPKKDKIELIPTRNDYHTISVDNSVYSFRNIERIEYQIDHHKIHFVATPSHTSFWNRVKDAFIGEVDEEGHHHHHH	soluble
MSLTKPIIGITANVRPNPAHEDIKWSYAPSGFVEGVQKAGGLAILLPVSDPLEAKTYISMIDKLILIGGQNIDPKFYNEENHACEDDFFLERDLFEMALIEEATKQKKPIFSICRGTQLMNVALGGSLHQDIKRHWQDKPSDYLYHEIIIDKNSKLAEIYGLETSINSFHHQSIKHLASDLRVIARDPEDNTVEAIESNTPDLRYLGVQWHPELLLNKREEDLKLFEYVVDELEGHHHHHH	soluble
MSLTLPELFTSVFSHFKGQPDKAPIARKINGAYSPISYDSLAEDCRHFAAYLKERGIEPGDRVAILSENRPGWYLADIAILSLGATDVPLYPSLPPNQIEYILNNCSAKGIIVSNMLQLGKILSIWPKLPELNMVIVMNKLDEPVEDVIDLSQAKTEGKKVLEAKPWLLDGIKSNPDDVATLIYTSGTTGLPKGVMLTHRNICENVKSCSTVIRIDQTDSSLSFLPLSHAYERTGGYYLMFACGARINLAESVETISLNISEAKPTIIFTVPRLFDRMKASILKSVTSEGGVKEKIFFWAVSTGEKYHKQLATGKVSPLLAVQHNLADKLVYSKIRKKFGGKLRYFVSGGAALPQKTGEFFQSIGITILEGFGLTETSPVTNVNRPEKVKFGTVGLPVKNVEVKIAPDGEIMLKGPNIMKGYWKDEAASAEVLRDGWLYTGDIGEVDSEGYLKITDRKKHIIVTSGGKNIAPLQIENLILDSPYVDQAMIVGEKRPFLIALIVPDFLKLRDFAAEHQIKASSTKELINTKEVIEVYEKLLKSISRQLATHEKVRKFLLLEEPFSIENGMMTPTLKLKRKEITTKFSAEIDNLYNTLNMVYNTEGHHHHHH	not soluble
MSLTLSDKDFEVLRDFIYNHCGIYFHTSKKYFLESRITRRIEATSSPNLMTYMGLLKSGPGKSDELLKLLTEITTNETCFFRNPPQLKALENVFLPEIVAAKGKIGFRKLRIWSAGSSSGEEAYTMAMLLLEKRATILKDWIIEIVGTDISETVLAQAREGVYNAYSVRNTPDYYKKKYFRQEPGERYVLSPDVKKLVSFNHLNLYEDAKMVFMKSFDFIFCANVLIYFDLASKTKVVQHYYNNLQPYGYFFVGQSESLHGVNDKFKTVHFPGGFAYKKEGHHHHHH	soluble
MSLTLTLTGTGGAQGVPAWGCECAACARARRSPQYRRQPCSGVVKFNDAITLIDAGLHDLADRWSPGSFQQFLLTHYHMDHVQGLFPLRWGVGDPIPVYGPPDEQGCDDLFKHPGLLDFSHTVEPFVVFDLQGLQVTPLPLNHSKLTFGYLLETAHSRVAWLSDTAGLPEKTLKFLRNNQPQVMVMDCSHPPRADAPRNHCDLNTVLALNQVIRSPRVILTHISHQFDAWLMENALPSGFEVGFDGMEIGVALEHHHHHH	soluble
MSLTPKKISSISLEVTGSIVSIGLAVYKDIFEYINLVTHKFIYFQDLERKNIELQLEIARLQHLQSEVESVKAENIALKDLLMIAEEEEFEYLTTKLLSVSFNPFSRTALISAGKKQGIEPDQIVVNSGKLVGKIIEVSNNYSKVMLISDVNSRIPIKANSSREQGILAGNNNNSKILYLPNNHLVQKDEEIVTSGHGNIYPAGILVGYVSRVTENDVIVNLAADLSKMEFVQILLPKQEGHHHHHH	soluble
MSLTQDYELVVKGVRNFENKVAVTVALRDKKRFDGEIFDLDISLDRVEGAALEFYEAAARMRIRQVFLDVAAGLCVGDEQSPEKRPIILEAQNVWITYKGKLPGRITGSLKTPPTALRSEGHHHHHH	not soluble
MSLTQKRLGLIMNGITGRMGLNQHLIRSVVAIRAQGGVPLSDGTKVQLDPILIGRNADKVEGLAKQYGIERWGTDLDAALADPGNEIFFDAATTQMRPILLEKAIRAGKHVYCEKPIATNLPEAVRICRLAEEKGVKNGVVQDKLFLPGLQKLKLLRDSGFFGRMISVRGEFGYWVFEGDWGQPAQRPSWNYRSQEGGGMILDMVCHWRYVLDNLFGEVKSVSCLGATHIPSRVDERGQPYEATADDAAYATFELQDGVIAHINMSWCTRVYRDDLVTFQVDGTLGSAVAGLSDCVFQSRVGTPRPVWNPDQKQTMDFYNHWQPVPDTAVFDNGFKVQWEMFIRHVVEDAPYRFTLREGAKGVQLVECALQSWKERRWIDVPTLEASERAVLQAAEEGHHHHHH	soluble
